# From US20110045489A1, “Polymerases for Incorporating Modified Nucleotides” (NEW ENGLAND BIOLABS, INC., priority 2008, published 2011)
# Positions count from the first letter of the chain named. Names may count otherwise.
# B1: 9° N exo-L408S/P410V: 9° N DNA polymerase mutant (protein, UniProt Q56366 1-775, looked up, variant D141A E143A L408S P410V)
# DNA polymerase: MILDTDYITENGKPVIRVFKKENGEFKIEYDRTFEPYFYALLKDDSAIEDVKKVTAKRHGTVVKVKRAEKVQKKFLGRPIEVWKLYFNHPQDVPAIRDRIRAHPAVVDIYEYDIPFAKRYLIDKGLIPMEGDEELTMLAFAIATLYHEGEEFGTGPILMISYADGSEARVITWKKIDLPYVDVVSTEKEMIKRFLRVVREKDPDVLITYNGDNFDFAYLKKRCEELGIKFTLGRDGSEPKIQRMGDRFAVEVKGRIHFDLYPVIRRTINLPTYTLEAVYEAVFGKPKEKVYAEEIAQAWESGEGLERVARYSMEDAKVTYELGREFFPMEAQLSRLIGQSLWDVSRSSTGNLVEWFLLRKAYKRNELAPNKPDERELARRRGGYAGGYVKEPERGLWDNIVYLDFRSSYVSIIITHNVSPDTLNREGCKEYDVAPEVGHKFCKDFPGFIPSLLGDLLEERQKIKRKMKATVDPLEKKLLDYRQRAIKILANSFYGYYGYAKARWYCKECAESVTAWGREYIEMVIRELEEKFGFKVLYADTDGLHATIPGADAETVKKKAKEFLKYINPKLPGLLELEYEGFYVRGFFVTKKKYAVIDEEGKITTRGLEIVRRDWSEIAKETQARVLEAILKHGDVEEAVRIVKEVTEKLSKYEVPPEKLVIHEQITRDLRDYKATGPHVAVAKRLAARGVKIRPGTVISYIVLKGSGRIGDRAIPADEFDPTKHRYDAEYYIENQVLPAVERILKAFGYRKEDLRYQKTKQVGLGAWLKVKGKK
# B2: 9° N exo-L408S/Y409A/P410V: 9° N DNA polymerase mutant (Therminator III™, NEB) (protein, UniProt Q56366 1-775, looked up, variant D141A E143A L408S Y409A P410V)
# DNA polymerase: B1 DNA polymerase with Y409A
# How the values were obtained:
# Type in all cases: biochemical
# 3′-azido-ddCTP [1] = test: Titration assay for chain terminator incorporation efficiency (3′-azido-ddCTP); conditions: 3′-azido-ddCTP:dNTP 10:1, 2.5:1, 1:2.5; FIG. 1
# Experimental: FIG. 1A-1D show titration assays for chain terminator incorporation efficiency. The relative efficiency of incorporation of modified nucleotide terminators was assessed using the titration assay described in Gardner and Jack Nucleic Acids Research 30: 605-613 (2002). A dye-labeled oligonucleotide primer 5′-AGTGAATTCGAGCTCGGTACCCGGGGATCCTCTAGAGTCGACCTGCAGGC-3′ was annealed to a single-stranded M13mp18 DNA template (Accession No. X02513) and extended by a DNA polymerase in the presence of various ratios of 3′-azido-ddCTP:dNTP (10:1, 2.5:1, 1:2.5) or dNTP (“dN” in the figure) alone in 1×ThermoPol buffer (20 mM Tris-HCl, 10 mM (NH4)2SO4,10 mM KCl, 2 mM MgSO4, 0.1% Triton X-100, pH 8.8 @ 25° C.). […]
# In order to determine the extent of 3′-modified nucleotide incorporation by archaeon DNA polymerases, the titration assay described by Gardner and Jack (2002) was used. […] By comparing the amount of terminator required to give the same spectrum of reaction products, the relative efficiency of incorporation of the test compounds with the different polymerases was determined. […]
# Once the spectrum of termination products was determined, a comparison of the length, uniformity and clarity of these patterns was used to evaluate incorporation of the terminator. […]
# The size distribution of termination products was determined by the relative rates of dNTP and terminator incorporation. […]
# modified nucleotide = test: Screen of DNA polymerase mutants for modified nucleotide incorporation
# Outline: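 Chain-terminator titration (Gardner and Jack 2002) compared terminator amounts giving equal product-size spectra, product size shrinking as terminator incorporation rises. Applied to purified 9° N exo- polymerase library mutants with 3′-azido-ddCTP and 3′-amino-ddCTP; incorporation rates also measured.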
# 3′-azido-ddCTP [2] = test: Kinetic analysis of 3′-azido-ddCTP incorporation (primer extension, PAGE)
# Experimental: An IR800-dye-labeled synthetic primer 5′-AGTGAATTCGAGCTCGGTACCCGGGGATCCTCTAGAGTCGACCTGCAGGC-3′ (SEQ ID NO:18) was annealed to a template 3′-TCACTTAAGCTCGAGCCATGGGCCCCTAGGAGATCTCAGCTGGACGTCCGGATCCTATACTAATCCC-5′ (SEQ ID NO:19) and used as a substrate to measure rates of 3′-azido-ddCTP incorporation. Incorporation of varying concentrations of 3′-azido-ddCTP (100, 50, 25, 12.5, 6.25, and 3.125 μM) by 9° N exo-L408S/Y409A/P410V DNA polymerase was monitored over a three-minute time course. Reaction aliquots were sampled at 10, 20, 30, 45, 60, and 180 seconds and analyzed by 20% denaturing PAGE. “S” is the unextended primer and “P” is the fully extended product corresponding to 3′-azido-ddCMP addition at the +1 position.
# (§1) An IR800-dye-labeled synthetic primer 5′-AGTGAATTCGAGCTCGGTACCCGGGGATCCTCTAGAGTCGACCTGCAGGC-3′ (SEQ ID NO:18) was annealed to a template 3′-TCACTTAAGCTCGAGCCATGGGCCCCTAGGAGATCTCAGCTGGACGTCCGGATCCTATACTAATCCC-5′ (SEQ ID NO:19) and used as a substrate. Reaction aliquots were sampled at 10, 30, 60, 120 and 300 seconds and analyzed by 20% denaturing PAGE. Unextended primer (0) and fully extended product (+1) are indicated.
# Linear rates of 3′-azido-ddCTP incorporation derived from these curves are 100 μM: 0.05 s^−1; 50 μM: 0.05 s^−1; 25 μM: 0.05s^−1; 12.5 μM: 0.03s^−1; 6.25 μM: 0.03s^−1; 3.125 μM: 0.02 s^−1.
# An IR800-dye-labeled synthetic primer 5′-AGTGAATTCGAGCTCGGTACCCGGGGATCCTCTAGAGTCGACCTGCAGGC-3′ (SEQ ID NO:18 was annealed to a template 3′-TCACTTAAGCTCGAGCCATGGGCCCCTAGGAGATCTCAGCTGGACGTCCGGATCCTATACTAATCCC-5′ (SEQ ID NO:19) and used as a substrate to measure rates of 3′-azido-ddCTP incorporation over a three-minute time course. The results are shown in FIG. 2. Reaction aliquots were sampled at 10, 20, 30, 45, 60, and 180 seconds and analyzed by 20% denaturing PAGE where “S” indicates the unextended primer and “P” the fully extended product corresponding to 3′-azido-ddCMP addition at the +1 position(B). 9° N exo-L408S/Y409A/P410V incorporation of varying concentrations of 3′-azido-ddCTP was measured over a three-minute time course.
# 3′-amino-ddCTP = test: Kinetic analysis of 3′-amino-ddCTP incorporation (primer extension, PAGE); conditions: FIG. 3
# From the text: as §1
# Furthermore, the same assay was used to measure 3′-amino-ddCTP incorporation by 9° N exo-L408S/Y409A/P410V (FIG. 3) and to measure rates of incorporation (FIG. 4). Examples of mutants that increased modified nucleotide incorporation by at least two-fold were: […]
Molecule,3′-azido-ddCTP incorporation efficiency relative to wild-type 9° N exo-DNA polymerase (3′-azido-ddCTP [1]),increase of modified nucleotide incorporation (modified nucleotide),linear rate of 3′-azido-ddCTP incorporation (3′-azido-ddCTP [2]; 3.125 μM 3′-azido-ddCTP) [s⁻¹],linear rate of 3′-azido-ddCTP incorporation (3′-azido-ddCTP [2]; 6.25 μM 3′-azido-ddCTP) [s⁻¹],linear rate of 3′-azido-ddCTP incorporation (3′-azido-ddCTP [2]; 12.5 μM 3′-azido-ddCTP) [s⁻¹],linear rate of 3′-azido-ddCTP incorporation (3′-azido-ddCTP [2]; 25 μM 3′-azido-ddCTP) [s⁻¹],linear rate of 3′-azido-ddCTP incorporation (3′-azido-ddCTP [2]; 50 μM 3′-azido-ddCTP) [s⁻¹],linear rate of 3′-azido-ddCTP incorporation (3′-azido-ddCTP [2]; 100 μM 3′-azido-ddCTP) [s⁻¹],"concentration of modified nucleotide sufficient for efficient incorporation (3′-azido-ddCTP [2]; 3′-azido-ddCTP, FIG. 3) [µM]",3′-azido-ddCTP incorporation (3′-azido-ddCTP [2]; after three minutes) [%],concentration of modified nucleotide sufficient for efficient incorporation (3′-amino-ddCTP) [µM]
B1,at least 2 fold,at least two-fold,,,,,,,,,
B2,,at least two-fold,0.02,0.03,0.03,0.05,0.05,0.05,10,~100,10
